Measured values: US10919943B2, “Mutant proteins enabling agrochemical control of plant gene expression” (The Regents of the University of California, priority 2016, dated 2021)
Substitutions are numbered along the chain they refer to.

Key:
wild type PYR1 = molecular target: T1, wild type PYR1 (Arabidopsis thaliana, UniProt O49686); experiment: In vitro pull down assay with recombinant 6×-His receptor and GST-PP2C; assay type: binding; conditions: FIG. 8
T1 construct: made in house; host or cells: E. coli BL21 [DE3]pLysS
T1 sequence (O49686 1-191): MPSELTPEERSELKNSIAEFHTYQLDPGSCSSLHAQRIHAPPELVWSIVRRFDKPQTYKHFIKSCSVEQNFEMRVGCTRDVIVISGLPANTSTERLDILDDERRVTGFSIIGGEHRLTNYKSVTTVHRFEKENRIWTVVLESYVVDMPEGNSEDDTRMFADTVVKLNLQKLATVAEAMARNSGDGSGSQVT
Excerpt: (§1) To characterize the orthogonal orthogonal module biochemically, we produced recombinant forms of 6×-His-PYR1*^-MANDI, 6×-His-PYR1, GST-HAB1*, and GST-HAB1 in E. coli, as described above, and tested wild type and orthogonal receptors for their ability to inhibit GST-HAB1 activity in vitro, as well as their physical interactions with one another using pull-down assays. To characterize PYR1*^-MANDI and HAB1* in vitro, we cloned PYR1*^-MANDI into pET28 to generate a 6×-His tagged receptor and cloned HAB1* into pGEX-4T-1 to create a GST-fusion protein. Recombinant 6×-His-PYR1*^-MANDI and GST-HAB1* were prepared, as described above in example 1C, and used in experiments with previously prepared 6×-His-PYR1 and GST-HAB1. To conduct pull down assays, the specified recombinant receptor and PP2C (20 and 140 μg respectively), were combined in 500 μl PP2C assay buffer (100 mM Tris-HCl (pH 7.9), 100 mM NaCl, 1 mM MnCl2, 1% 13-ME and 0.3% BSA) containing either 10 μM ABA, 10 μM mandipropamid or 1% DMSO carrier solvent as a negative control. The final protein concentrations in the reactions are 1.6 μM receptor and 3.4 μM PP2C. The reactions were incubated for 90 minutes at room temperature (RT) and 20 μl of PrepEase (USB) His-tagged protein purification resin (20 mg) was added. The resin and reaction mixtures were incubated for 30 minutes at RT with gentle shaking at 5 minute intervals. The resin was washed five times and 100 μl of SDS-PAGE buffer was added and boiled for 5 minutes. After centrifugation 20 μl of supernatant was analyzed by SDS-PAGE.

wild type HAB1 [1] = molecular target: T2, wild type HAB1 (Arabidopsis thaliana, UniProt O49686+Q9CAJ0, A160V/F108A/F159V/K59R/M158I/S122G/T162D/V81I/Y58H); experiment: Yeast two hybrid, mandipropamid-promoted interaction of PYR1 variants with wild type HAB1; assay type: cell-based
T2 construct: expressed in transfected cells
T2 sequence (Q9CAJ0 4-511): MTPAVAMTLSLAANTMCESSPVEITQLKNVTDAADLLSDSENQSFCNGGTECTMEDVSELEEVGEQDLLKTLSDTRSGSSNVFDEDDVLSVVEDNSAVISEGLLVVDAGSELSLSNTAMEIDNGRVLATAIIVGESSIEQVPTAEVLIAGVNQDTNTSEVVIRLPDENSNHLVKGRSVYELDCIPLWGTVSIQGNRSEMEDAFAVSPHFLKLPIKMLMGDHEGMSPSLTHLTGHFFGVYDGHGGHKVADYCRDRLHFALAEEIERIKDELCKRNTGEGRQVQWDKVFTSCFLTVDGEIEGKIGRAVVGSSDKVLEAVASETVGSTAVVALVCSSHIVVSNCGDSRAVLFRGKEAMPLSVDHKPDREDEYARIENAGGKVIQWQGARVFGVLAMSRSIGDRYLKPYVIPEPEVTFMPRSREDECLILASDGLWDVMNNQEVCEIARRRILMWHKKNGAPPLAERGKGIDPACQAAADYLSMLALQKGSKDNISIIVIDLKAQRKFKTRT
T2 sequence (O49686 1-191 Y58H/K59R/V81I/F108A/S122G/M158I/F159V/A160V/T162D): T1 sequence (O49686 1-191) with Y58H, K59R, V81I, F108A, S122G, M158I, F159V, A160V, T162D
Excerpt: To engineer orthogonal mandipropamid responsiveness, we introduced the PYR1^! mutation into the PYR1^MANDI receptor to create a septuple mutant called PYR1^!-MANDI (PYR1^Y58H;K59R;V81I;F108A;S122G;F159L;T162D). This mutant interacts with HAB1^! and HAB^!-2 in response to low μM mandipropamid in yeast two-hybrid assays, but is ˜100-fold less sensitive than the PYR1^MANDI/HAB1 interaction, which responds to concentrations in the low nM range (FIG. 3).
To improve sensitivity, we mutagenized ligand contacting and interface residues in PYR1^!-MANDI using NNK primers, pooled the mutant libraries, and used the mutagenized receptors in selection experiments using to identify enhancer mutations. The NNK mutagenesis screen targeted the following residues: P55, H60, F61, I62, K63, V83, S85, G86, L87, P88, A89, S92, E94, I110, H115, R116, L117, Y120, E141, P148, G150, N151, D154, D155, T156, M158, A160, V163, V164, L166, N167, and K170. […] Since M158 and A160 flank the F159V mutation present in PYR1^MANDI, we inferred that the closely located orthogonalizing T162D mutation in PYR1^!-MANDI may have reduced mandipropamid sensitivity by altering the local structure of the C-terminal α3-helix, which participates in ligand-induced conformational changes needed for PP2C binding (Nishimura et al., 2009). […]

wild type HAB1 [2] = molecular target: T3, wild type HAB1 (Arabidopsis thaliana, UniProt O49686+Q9CAJ0, A160V/F108A/F159V/K59R/M158I/S122G/T162D/V81I/Y58H); experiment: In vitro pull down assay with recombinant 6×-His receptor and GST-PP2C; assay type: binding; conditions: 10 μM mandipropamid; FIG. 8
T3 construct: made in house; host or cells: E. coli BL21 [DE3]pLysS
Excerpt: as §1
T3 sequence (O49686 whole entry Y58H/K59R/V81I/F108A/S122G/M158I/F159V/A160V/T162D, one chain of several): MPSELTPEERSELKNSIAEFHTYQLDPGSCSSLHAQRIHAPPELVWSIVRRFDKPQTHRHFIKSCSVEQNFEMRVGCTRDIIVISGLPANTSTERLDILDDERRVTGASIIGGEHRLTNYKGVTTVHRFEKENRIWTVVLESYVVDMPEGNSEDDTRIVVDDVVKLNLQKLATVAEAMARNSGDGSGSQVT

B1: HAB1*: catalytically inactive orthogonal pentuple HAB1 mutant (protein, listed as Arabidopsis thaliana)
chain: T2 sequence (Q9CAJ0 4-511) with R196A, D201A, S319D, V390R, R502A
In the case of B1, the “binding to wild type PYR1” value (wild type PYR1; 10 μM ABA) is reported as “does not bind” and the “binding to wild type PYR1” value (wild type PYR1; 10 μM mandipropamid) is reported as “does not bind”.

B2: PYR1*^-MANDI: PYR1 mutant with 9 mutations, most sensitive to mandipropamid (protein, listed as Arabidopsis thaliana)
chain: T1 sequence (O49686 1-191) with Y58H, K59R, V81I, F108A, S122G, M158I, F159V, A160V, T162D
In the case of B2, the “fold less sensitivity to mandipropamid than the orthogonal interaction” value (wild type HAB1 [1]; FIG. 6) is reported as about 10 fold, the “interaction with wild type HAB1” value (wild type HAB1 [1]; yeast two hybrid) is reported as “weakly interacts” and the “binding to wild type HAB1” value (wild type HAB1 [2]) is reported as “can bind”.
